In publication PMC10533412, “Phosphoantigens glue butyrophilin 3A1 and 2A1 to activate Vγ9Vδ2 T cells” (Nature, 2023):

What was measured:
BTN2A1 B30.2 domain = BTN2A1 B30.2 domain (UniProt Q7KYR7); assay: ITC; details: with HMBPP
HMBPP = assay: ITC
[1] = biological target: VpBTN3 butyrophilin full intracellular domain (BFI) (alpaca (Vicugna pacos)); assay: ITC; with IPP; details: domain or fragment
[2] = biological target: VpBTN3 butyrophilin full intracellular domain (BFI) (alpaca (Vicugna pacos)); assay: ITC; with DMAPP; details: domain or fragment
[3] = biological target: VpBTN3 butyrophilin full intracellular domain (BFI) (alpaca (Vicugna pacos)); assay: ITC; with HMBPP; details: domain or fragment

Sequence of BTN2A1 B30.2 domain (Q7KYR7 whole entry, looked up, tested part not stated): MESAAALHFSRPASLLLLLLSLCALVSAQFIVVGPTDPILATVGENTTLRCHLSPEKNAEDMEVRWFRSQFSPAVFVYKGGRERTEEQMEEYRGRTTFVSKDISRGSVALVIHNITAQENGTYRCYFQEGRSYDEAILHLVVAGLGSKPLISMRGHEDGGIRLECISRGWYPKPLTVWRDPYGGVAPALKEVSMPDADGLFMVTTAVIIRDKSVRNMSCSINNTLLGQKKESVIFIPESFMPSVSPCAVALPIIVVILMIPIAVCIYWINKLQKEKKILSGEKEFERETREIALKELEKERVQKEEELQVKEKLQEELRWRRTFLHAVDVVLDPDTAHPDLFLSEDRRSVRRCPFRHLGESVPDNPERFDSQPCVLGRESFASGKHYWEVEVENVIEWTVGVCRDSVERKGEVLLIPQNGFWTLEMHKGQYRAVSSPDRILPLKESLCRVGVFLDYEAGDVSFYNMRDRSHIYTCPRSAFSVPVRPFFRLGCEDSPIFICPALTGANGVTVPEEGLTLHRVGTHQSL

Substance	Kd (BTN2A1 B30.2 domain) [µM]	Kd (HMBPP) [µM]	Kd [1] [µM]	Kd [2] [µM]	Kd [3] [µM]
BTN3A3 B30.2 R351H	0.46	10.9	–	–	–
VpBTN2 butyrophilin full intracellular domain (BFI)	–	–	191	46.5	0.658
